Measurements taken from article PMC12846365.

Legend:
[1] = biological target: 48d.cl IC, fusion version (gpCore + 48d heavy chain fusion, Fab-Fab-crosslinked K126C) (HIV-1 strain BG505); test: native gel or EMSA
[2] = biological target: 3 plasmid ICs (as tested with N6); test: native gel or EMSA
wtA32 = test: not stated; KD of wtA32 in Table 1, no footnote and no method told
3mutA32 = test: SPR; OpenSPR-XT; C-terminally Strep-tagged antibody immobilised on Strep-Tactin XT over biotin sensor/streptavidin/biotinylated Strep-Tag peptide; analyte monovalent gpCore or ICs; 1:1 fit model; apparent kinetic values
7mutVRC01 = test: as above
2mutVRC01 = test: as above
[3] = biological target: GTi divalent immunogen, Fab-Fab-crosslinked version (HIV-1 strain BG505); test: native gel or EMSA
[4] = biological target: GTiii divalent immunogen, Fab-Fab-crosslinked version (HIV-1 strain BG505); test: native gel or EMSA
[5] = biological target: GTii divalent immunogen, Fab-Fab-crosslinked version (HIV-1 strain BG505); test: native gel or EMSA

Sequence of 3mutA32 (heavy, as listed by the source, chain 1 of 2): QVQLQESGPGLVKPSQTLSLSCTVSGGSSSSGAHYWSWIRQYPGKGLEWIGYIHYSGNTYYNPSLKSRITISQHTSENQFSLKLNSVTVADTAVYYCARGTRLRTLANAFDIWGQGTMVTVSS
Sequence of 3mutA32 (light, as listed by the source, chain 2 of 2): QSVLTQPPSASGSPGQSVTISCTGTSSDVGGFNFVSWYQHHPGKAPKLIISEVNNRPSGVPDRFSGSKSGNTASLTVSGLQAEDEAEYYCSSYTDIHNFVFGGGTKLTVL
Sequence of 2mutVRC01 (light, as listed by the source, chain 2 of 2, other chains not shown): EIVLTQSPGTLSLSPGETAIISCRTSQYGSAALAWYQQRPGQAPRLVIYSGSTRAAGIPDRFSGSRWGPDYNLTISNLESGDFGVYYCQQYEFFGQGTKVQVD
Sequence of 7mutVRC01 (heavy, as listed by the source, chain 1 of 2): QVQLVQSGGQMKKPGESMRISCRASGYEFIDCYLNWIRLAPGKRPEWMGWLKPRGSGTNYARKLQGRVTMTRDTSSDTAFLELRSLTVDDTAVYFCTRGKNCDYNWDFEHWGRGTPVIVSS
Sequence of 7mutVRC01 (light, as listed by the source, chain 2 of 2): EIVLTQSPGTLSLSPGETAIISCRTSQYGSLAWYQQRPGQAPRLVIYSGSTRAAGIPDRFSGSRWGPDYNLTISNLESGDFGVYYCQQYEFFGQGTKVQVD
Sequence of wtA32 (heavy, as listed by the source, chain 1 of 2): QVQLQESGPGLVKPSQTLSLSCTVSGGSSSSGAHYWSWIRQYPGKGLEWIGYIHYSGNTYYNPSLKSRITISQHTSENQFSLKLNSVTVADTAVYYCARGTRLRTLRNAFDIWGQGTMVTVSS
Sequence of wtA32 (light, as listed by the source, chain 2 of 2): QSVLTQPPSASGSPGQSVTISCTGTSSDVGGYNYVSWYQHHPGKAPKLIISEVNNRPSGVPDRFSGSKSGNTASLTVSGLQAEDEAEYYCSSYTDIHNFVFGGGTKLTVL

Substance: N6 (antibody)
- stoichiometry N [1]: 1
- stoichiometry N [2]: 1

Substance: gpCore (core gp120 of strain BG505), monovalent (domain or fragment)
- Kd (wtA32): 0.4 nM
- Kd (3mutA32): 200 nM
- Kd (7mutVRC01): 7000 nM
- Kd (2mutVRC01): 200 nM

Substance: monomeric VRC01 IgM unmutated common ancestor (UCA) (antibody)
- Kd [3]: 800 to 1000 nM
- Kd [4]: 25 nM
- Kd [5]: 60 nM
